Reference: US8008547B2, “Glyphosate-N-acetyltransferase (GAT) genes” (E.I. duPont de Nemours, priority 2000, dated 2011)

What was measured:
[1] = Transfer of the propionyl group from propionyl CoA to glyphosate (DTNB); format: biochemical; settings: 1 mM propionyl CoA, 5 mM glyphosate or no glyphosate, 30 minutes
Description: The ability of GAT variants (B6 (SEQ ID NO:7), 0—6D10 (SEQ ID NO:448), 17-15H3 (SEQ ID NO:601), and 20-8H12 (SEQ ID NO:816)) to transfer the propionyl group from propionyl CoA to glyphosate was tested in reaction mixtures containing 5 mM glyphosate or no glyphosate. Propionyl CoA was present at 1 mM. After 30 minutes the reactions were terminated and the presence of free […] was determined by the addition of DTNB.

[2] = Standard protocol for determination of kcat and KM (continuous spectrophotometric assay, Acetyl CoA hydrolysis at 235 nm); format: biochemical; settings: purified protein; about 23° C.; 20 mM HEPES pH 6.8, 10% ethylene glycol, 0.2 mM acetyl CoA
How it was run: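 KM from initial rates over 0.125–10 mM glyphosate, fitted by Lineweaver-Burke transformation of Michaelis-Menten; kcat/KM computed as kcat divided by KM. Continuous spectrophotometric read of acetyl-CoA hydrolysis at 235 nm.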

maize plants [3] = assay: Effect of temperature variation on glyphosate tolerance of T1 maize expressing GAT transgenes; format: in vivo; settings: cool/cold, warm and hot conditions; 0×, 4×, 6×, 8× at V2; scored at 5 and 14 days
Description: Maize plants expressing GAT variant transgenes 10—4F2 (SEQ ID NO:202), 17-15H3 (SEQ ID NO:549), and 18-28D9b (SEQ ID NO:814) were produced using the methods described in Example 13. The effect of temperature on glyphosate tolerance was evaluated in T1 plants. The T1 plants were grown in cool/cold (day 14° C., night 8° C.), warm (day 28° C., night 20° C.), and hot (day 37° C., night 20° C.) conditions. T1 plants were sprayed at V2 with four different glyphosate spray treatments (0×, 4×, 6×, and 8×). Plants were scored at 5 and 14 days after treatment for leaf discoloration and plant height comparisons as described in Example 13.

maize plants [4] = assay: T1 field glyphosate spray of maize expressing GAT transgenes; format: in vivo; settings: 0×, 4×, 8×, and 4×+4× sprays at V3 and V8; scored 10 days after treatment
Description: Maize plants expressing GAT variant transgenes 18-28D9b (SEQ ID NO:814) and 17-15H3 (SEQ ID NO:549) were produced using the methods described in Example 13. T1 plants were used for the generation of glyphosate field-tolerance data. The T1 plants were treated in the field with four different glyphosate spray treatments (0×, 4×, 8×, and 4×+4×) for each event. The plants were sprayed at V3 and V8. Plants were scored 10 days after treatment for leaf discoloration and plant height comparisons as described in Example 13. […] T2 seeds were collected for further studies.

[5] = GAT activity (acetylation of glyphosate), general statements; format: biochemical; settings: native YitI of Bacillus subtilis
Text: As used herein, the term “glyphosate-N-acetyltransferase activity” or “GAT activity” refers to the ability to catalyze the acetylation of the secondary amine group of glyphosate, as illustrated, for example, in FIG. 1. A “glyphosate-N-acetyltransferase” or “GAT” is an enzyme that catalyzes the acetylation of the amine group of glyphosate, a glyphosate analog, and/or a glyphosate primary metabolite (i.e., AMPA or sarcosine). In some preferred embodiments of the invention, a GAT is able to transfer the acetyl group from Acetyl CoA to the secondary amine of glyphosate and the primary amine of AMPA. […] The exemplary GATs described herein are active from pH 5-9, with optimal activity in the range of pH 6.5-8.0. Activity can be quantified using various kinetic parameters which are well known in the art, e.g., kcat, KM, and kcat/KM. These kinetic parameters can be determined as described below in Example 7.

[6] = KM for Acetyl CoA by mass spectrometric detection of N-acetyl glyphosate; format: biochemical; settings: for Km: read-out: apparent KM for Acetyl CoA, 5 mM glyphosate, 0.19 μM GAT, pH 7.7, 50% methanol
Description: Initial reaction rates were determined using mass spectrometric detection of N-acetyl glyphosate. Five μl were repeatedly injected into the instrument and reaction rates were obtained by plotting reaction time vs. area of the integrated peak (FIG. 6). Hyperbolic saturation kinetics were observed (FIG. 7), from which an apparent KM of 2 μM was derived.
KM for Acetyl CoA was measured using the mass spectrometry method with repeated sampling during the reaction. AcetylCoA and glyphosate (ammonium salts) were placed as 50-fold-concentrated stock solutions into a well of a mass spectrometry sample plate. Reactions were initiated with the addition of enzyme appropriately diluted in a volatile buffer such as morpholine acetate or ammonium carbonate, pH 6.8 or 7.7. The sample was repeatedly injected into the instrument and initial rates were calculated from plots of […] and peak area. KM was calculated as for glyphosate.

[7] = Apparent KM for glyphosate of purified GAT from B. licheniformis strain B6 (spectrophotometric, 235 nm); format: biochemical; settings: 200 μM Acetyl CoA, 1 μM purified GAT, pH 7.7, 20% ethylene glycol
Text: Hyperbolic saturation kinetics were observed (FIG. 5), from which an apparent KM of 2.9±0.2 (SD) mM was obtained.

B1: SEQ ID NO: 448: GAT polypeptide (protein)
chain: MLEVKPINAEDTYELRHKILRPNQPLEVCMYETDLLRGAFHLGGFYRGKLISIASFHQAEHSDLQGQKQYQLRGMATLEGYRDQKAGSSLIRHAEQILRKRGADMLWCNARTSASGYYKKLGFSEQGEVFETPPVGPHILMYKRLT
modifications: 0_6D10
notes: GAT polypeptide
- transfer of propionyl group to glyphosate [1]: glyphosate-dependent hydrolysis of propionyl CoA
- Kcat [2]: 1.85 s⁻¹

B2: SEQ ID NO:549: GAT variant transgene (nucleic acid)
DNA: ATGATAGAGGTGAAACCGATTAACGCAGAGGATACCTATGAACTAAGGCATAGAATACTCAGACCAAACCAGCCGATAGAAGCGTGTATGTTTGAAAGCGATTTACTTCGTGGTGCATTTCACTTAGGCGGCTATTACGGGGGCAAACTGATTTCCATAGCTTCATTCCACCAGGCCGAGCACTCAGAACTCCAAGGCCAGAAACAGTACCAGCTCCGAGGTATGGCTACCTTGGAAGGTTATCGTGAGCAGAAGGCGGGATCGAGTCTAATTAAACACGCTGAAGAAATTCTTCGTAAGAGGGGGGCGGACTTGCTTTGGTGTAATGCGCGGACATCCGCCTCAGGCTACTACAAAAAGTTAGGCTTCAGCGAGCAGGGAGAGGTATTCGACACGCCGCCAGTAGGACCTCACATCCTGATGTATAAAAGGATCACATAA
modifications: Synthetic DNA Sequence; D_S00260796_17-15H3
notes: GAT variant transgene
- effect of temperature on glyphosate tolerance (maize plants [3]): glyphosate tolerance is not adversely effected by the range of temperatures tested
- T1 field glyphosate tolerance (maize plants [4]): correlated well with the results previously obtained in the greenhouse

B3: SEQ ID NO:814: GAT variant transgene (nucleic acid)
DNA: ATGATAGAGGTGAAACCGATTAACGCAGAGGATACCTATGAACTAAGGCATAGAATACTCAGACCAAACCAGCCGATAGAAGCGTGTATGTTTGAAAGCGATTTACTTCGTGGTGCATTTCACTTAGGCGGCTTTTACAGGGGCAAACTGATTTCCATAGCTTCATTCCACCAGGCCGAGCACTCGGAACTCCAAGGCCAGAAACAGTACCAGCTCCGAGGTATGGCTACCTTGGAAGGTTATCGTGAGCAGAAAGCGGGATCAACTCTAGTTAAACACGCTGAAGAAATCCTTCGTAAGAGGGGGGCGGACATGCTTTGGTGTAATGCGCGGACATCCGCCTCAGGCTACTACAAAAAGTTAGGCTTCAGCGAGCAGGGAGAGATATTTGACACGCCGCCAGTAGGACCTCACATCCTGATGTATAAAAGGATCACATAA
modifications: Synthetic DNA Sequence; CDS (1)...(441); 18-28D9b
notes: GAT variant transgene
- effect of temperature on glyphosate tolerance (maize plants [3]): glyphosate tolerance is not adversely effected by the range of temperatures tested
- T1 field glyphosate tolerance (maize plants [4]): correlated well with the results previously obtained in the greenhouse

B4: SEQ ID NO:202: GAT variant transgene (nucleic acid)
DNA: ATGCTAGAGGTGAAACCGATTAACGCAGAGGATACCTATGAACTAAGGCATAGAATACTCAGACCAAACCAGCCGATAGAAGCGTGTATGTTTGAAAGCGATTTACTTCGTGGTGCATTTCACTTAGGCGGCTTTTACAGGGGCAAACTGATTTCCATAGCTTCATTCCACCAGGCCGAGCACTCAGAACTCCAAGGCCAGAAACAGTACCAGCTCCGAGGTATGGCTACCTTGGAAGGTTATCGTGAGCAGAAAGCGGGATCGAGTCTAATTAGACACGCTGAAGAAATTCTTCGTAAGAGGGGGGCGGACATGCTTTGGTGTAATGCGCGGACATCCGCCTCAGGCTACTACAAAAAGTTAGGCTTCAGCGAGCAGGGAGAGATATTTGAAACGCCGCCAGTAGGACCTCACATCCTGATGTATAAAAGGCTCACATAA
modifications: Synthetic DNA Sequence; 10_4F2
notes: GAT variant transgene
- effect of temperature on glyphosate tolerance (maize plants [3]): glyphosate tolerance is not adversely effected by the range of temperatures tested

B5: YitI: most closely related sequence available in Genbank, yitI from Bacillus subtilis (protein, UniProt O06744 1-149, looked up)
Uncharacterized …: MLEVKTISVEDTYEIRHRILRPHQSIEQCKYKEDHAEGSFHLGVFYDGTLISIASFSPQSQPLLTEASAYRLRGMATLEGYRDQKAGSTLIKHAEHKLAESGVQAVWCNARHHVKGYYAKLGWKELGEPFDIPGIGNHIVMYKTLRTSR
- GAT activity [5]: detectable GAT activity

B6: SEQ ID NO:601: GAT variant polypeptide (protein)
chain: MIEVKPINAEDTYELRHRILRPNQPIEACMFESDLLRGAFHLGGYYGGKLISIASFHQAEHSELQGQKQYQLRGMATLEGYREQKAGSSLIKHAEEILRKRGADLLWCNARTSASGYYKKLGFSEQGEVFDTPPVGPHILMYKRIT
modifications: D_S00260796_17-15H3
notes: GAT variant polypeptide
- transfer of propionyl group to glyphosate [1]: glyphosate-dependent hydrolysis of propionyl CoA

B7: SEQ ID NO:816: GAT variant (protein)
chain: MIEVKPINAEDTYELRHRVLRPNQPIEACIFESDLMRGAFHLGGFYGGRLISVASFHQAEHSELQGQKQYQLRGMATLEGYREQKAGSSLVKHAEEILRKRGADLLWCNARTSASGYYKKLGFSEQGEVFDTPPVGPHILMYKRIT
modifications: Synthetic DNA Sequence; CDS (1)...(441); 20-8H12c
notes: GAT variant
- transfer of propionyl group to glyphosate [1]: glyphosate-dependent hydrolysis of propionyl CoA

B8: SEQ ID NO:7: GAT enzyme isolated from a strain of B. licheniformis (strain B6) (protein)
chain: MIEVKPINAEDTYEIRHRILRPNQPLEACKYETDLLGGTFHLGGYYRDRLISIASFHQAEHSELEGQKQYQLRGMATLEGYREQKAGSTLIRHAEELLRKKGADLLWCNARTSVSGYYKKLGFSEQGGVYDIPPIGPHILMYKKLT
modifications: Unidentified microorganism derived from soil sample.; B6 GAT
- transfer of propionyl group to glyphosate [1]: glyphosate-dependent hydrolysis of propionyl CoA
- Kcat ([6]; calculated from Vmax at a known concentration of enzyme): 0.1 s⁻¹
- Km [6]: ~2 µM
- Km ([6]; listed as B6): 2 µM
- Km [7]: ~2900 µM
- Km ([7]; listed as B6): 2900 ± 200 µM
